Consider two proteins from the PETadex activity labels.

Broadly, the Km is the concentration of substrate that gives half-maximal velocity. Usually kcat stands for the maximal rate divided by the concentration of active sites. The kcat/Km is the second-order rate constant that governs catalysis at low substrate concentration.

Sequences and labels used below:
B1: unnamed (protein)
chain: MNFPRASRLMQAAVLGGLMAVSAAATAQTNPYARGPNPTAASLEASAGPFTVRSFTVSRPSGYGAGTVYYPTNAGGTVGAIAIVPGYTARQSSIKWWGPRLASHGFVVITIDTNSTLDQPSSRSSQQMAALRQVASLNGTSSSPIYGKVDTARMGVMGHSMGGGGSLISAANNPSLKAAAPQAPWDSSTNFSSVTVPTLIFACENDSIAPVNSSALPIYDSMSRNAKQFLEINGGSHFCANSGNSNQALIGKKGVAWMKRFMDNDTRYSTFACENPNSTRVSDFRTANCS
B2: unnamed (protein)
chain: MSMTASAYALAQSSPYAKGPDPTTSSLEAATGSFSTRTTTVSRLSASGFGGGTIYYPTASGSYGAIAISPGFTAYQSSISWLGTRLASRGFVVITIDTITTSDQPDSRGRQLKAALDKVVSLSRTAGNVLYGKVDANRLAVAGHSMGGGGTLAAARDNPSLKAAVPLAPWHTTKFFSTIRVPTLIIGGESDTIAPVASHSIPFYTSSLSSIAKGYMELNNASHFFPQTSTYYPLVGKYMISWFKRFVDEDTRYSPFLCGAPHQSDVANFLRVSDYRENCPY

Substrate in the first series: BHET
Experiment: not given
To be noted: 50 °C; part of the chain shown.
Regarding B1, the Km stood at 1.61 mM, the kcat worked out at 540 s⁻¹ and the kcat/Km was found to be 335000 s⁻¹ M⁻¹.

Substrate in another series: BHET
The experiment in a line: Proxy for plastic degradation [Released monomer concentration (HPLC/LC-MS) (BHET)]. Particulars: pH 7.
B2: the “Proxy for plastic degradation” value is 1%.
